Assay results from IntAct's records for PubMed 16306228.

B1: Serine/threonine-protein kinase SIK1 (Homo sapiens), P57059 (parent)
chain: MVIMSEFSADPAGQGQGQQKPLRVGFYDIERTLGKGNFAVVKLARHRVTKTQVAIKIIDKTRLDSSNLEKIYREVQLMKLLNHPHIIKLYQVMETKDMLYIVTEFAKNGEMFDYLTSNGHLSENEARKKFWQILSAVEYCHDHHIVHRDLKTENLLLDGNMDIKLADFGFGNFYKSGEPLSTWCGSPPYAAPEVFEGKEYEGPQLDIWSLGVVLYVLVCGSLPFDGPNLPTLRQRVLEGRFRIPFFMSQDCESLIRRMLVVDPARRITIAQIRQHRWMRAEPCLPGPACPAFSAHSYTSNLGDYDEQALGIMQTLGVDRQRTVESLQNSSYNHFAAIYYLLLERLKEYRNAQCARPGPARQPRPRSSDLSGLEVPQEGLSTDPFRPALLCPQPQTLVQSVLQAEMDCELQSSLQWPLFFPVDASCSGVFRPRPVSPSSLLDTAISEEARQGPGLEEEQDTQESLPSSTGRRHTLAEVSTRLSPLTAPCIVVSPSTTASPAEGTSSDSCLTFSASKSPAGLSGTPATQGLLGACSPVRLASPFLGSQSATPVLQAQGGLGGAVLLPVSFQEGRRASDTSLTQGLKAFRQQLRKTTRTKGFLGLNKIKGLARQVCQAPASRASRGGLSPFHAPAQSPGLHGGAAGSREGWSLLEEVLEQQRLLQLQHHPAAAPGCSQAPQPAPAPFVIAPCDGPGAAPLPSTLLTSGLPLLPPPLLQTGASPVASAAQLLDTHLHIGTGPTALPAVPPPRLARLAPGCEPLGLLQGDCEMEDLMPCSLGTFVLVQ
B2: Serine/threonine-protein kinase SIK3 (Homo sapiens), Q9Y2K2 (parent)
chain: MAAAAASGAGGAAGAGTGGAGPAGRLLPPPAPGSPAAPAAVSPAAGQPRPPAPASRGPMPARIGYYEIDRTIGKGNFAVVKRATHLVTKAKVAIKIIDKTQLDEENLKKIFREVQIMKMLCHPHIIRLYQVMETERMIYLVTEYASGGEIFDHLVAHGRMAEKEARRKFKQIVTAVYFCHCRNIVHRDLKAENLLLDANLNIKIADFGFSNLFTPGQLLKTWCGSPPYAAPELFEGKEYDGPKVDIWSLGVVLYVLVCGALPFDGSTLQNLRARVLSGKFRIPFFMSTECEHLIRHMLVLDPNKRLSMEQICKHKWMKLGDADPNFDRLIAECQQLKEERQVDPLNEDVLLAMEDMGLDKEQTLQSLRSDAYDHYSAIYSLLCDRHKRHKTLRLGALPSMPRALAFQAPVNIQAEQAGTAMNISVPQVQLINPENQIVEPDGTLNLDSDEGEEPSPEALVRYLSMRRHTVGVADPRTEVMEDLQKLLPGFPGVNPQAPFLQVAPNVNFMHNLLPMQNLQPTGQLEYKEQSLLQPPTLQLLNGMGPLGRRASDGGANIQLHAQQLLKRPRGPSPLVTMTPAVPAVTPVDEESSDGEPDQEAVQSSTYKDSNTLHLPTERFSPVRRFSDGAASIQAFKAHLEKMGNNSSIKQLQQECEQLQKMYGGQIDERTLEKTQQQHMLYQQEQHHQILQQQIQDSICPPQPSPPLQAACENQPALLTHQLQRLRIQPSSPPPNHPNNHLFRQPSNSPPPMSSAMIQPHGAASSSQFQGLPSRSAIFQQQPENCSSPPNVALTCLGMQQPAQSQQVTIQVQEPVDMLSNMPGTAAGSSGRGISISPSAGQMQMQHRTNLMATLSYGHRPLSKQLSADSAEAHSLNVNRFSPANYDQAHLHPHLFSDQSRGSPSSYSPSTGVGFSPTQALKVPPLDQFPTFPPSAHQQPPHYTTSALQQALLSPTPPDYTRHQQVPHILQGLLSPRHSLTGHSDIRLPPTEFAQLIKRQQQQRQQQQQQQQQQEYQELFRHMNQGDAGSLAPSLGGQSMTERQALSYQNADSYHHHTSPQHLLQIRAQECVSQASSPTPPHGYAHQPALMHSESMEEDCSCEGAKDGFQDSKSSSTLTKGCHDSPLLLSTGGPGDPESLLGTVSHAQELGIHPYGHQPTAAFSKNKVPSREPVIGNCMDRSSPGQAVELPDHNGLGYPARPSVHEHHRPRALQRHHTIQNSDDAYVQLDNLPGMSLVAGKALSSARMSDAVLSQSSLMGSQQFQDGENEECGASLGGHEHPDLSDGSQHLNSSCYPSTCITDILLSYKHPEVSFSMEQAGV

Variants of: B1
Conditions: with 1433z_human YWHAZ

Row | effect of a mutation on the interaction | Variant
1 | decreasing interaction | T182A

Variants of: B2
Conditions: with 1433z_human YWHAZ

Row | effect of a mutation on the interaction | Variant
2 | decreasing interaction | T221A
